# Reference: US6387681
# System: NheI restriction endonuclease (R.NheI) (Neisseria mucosa heidelbergensis)
# Assay: cleavage_in_vitro
# Conditions: cell extract of clones #1 and #9; AvaI-linearized pBR322 cleaved into 1196 and 3165 bp fragments
sequence,measurement,value
GCTAGC (double strand) [NheI site in AvaI-linearized pBR322],activity (units per gram wet cells),1e+07
